From paper doi:10.1101/2020.03.06.980961
Where two headings read alike, the source gives them in different places.

Legend:
Experiment in all cases: fluorescence anisotropy
[1] = target: T1, Mtf1-Δ20 (Saccharomyces cerevisiae, UniProt P14908 1-321)
T1 sequence: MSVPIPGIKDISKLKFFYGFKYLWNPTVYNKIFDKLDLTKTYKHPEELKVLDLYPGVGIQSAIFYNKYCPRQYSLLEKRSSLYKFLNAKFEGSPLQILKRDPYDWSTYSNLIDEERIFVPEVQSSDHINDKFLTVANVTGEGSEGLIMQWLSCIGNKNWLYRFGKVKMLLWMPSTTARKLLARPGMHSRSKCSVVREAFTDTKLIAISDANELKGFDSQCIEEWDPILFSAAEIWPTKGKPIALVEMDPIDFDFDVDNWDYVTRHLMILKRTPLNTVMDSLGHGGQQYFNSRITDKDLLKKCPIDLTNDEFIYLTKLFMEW

[2] = target: T1, Mtf1-Δ20; remark: listed apart in the source
[3] = target: T2, TFB2M-WT (human, UniProt Q9H5Q4 20-396)
T2 sequence: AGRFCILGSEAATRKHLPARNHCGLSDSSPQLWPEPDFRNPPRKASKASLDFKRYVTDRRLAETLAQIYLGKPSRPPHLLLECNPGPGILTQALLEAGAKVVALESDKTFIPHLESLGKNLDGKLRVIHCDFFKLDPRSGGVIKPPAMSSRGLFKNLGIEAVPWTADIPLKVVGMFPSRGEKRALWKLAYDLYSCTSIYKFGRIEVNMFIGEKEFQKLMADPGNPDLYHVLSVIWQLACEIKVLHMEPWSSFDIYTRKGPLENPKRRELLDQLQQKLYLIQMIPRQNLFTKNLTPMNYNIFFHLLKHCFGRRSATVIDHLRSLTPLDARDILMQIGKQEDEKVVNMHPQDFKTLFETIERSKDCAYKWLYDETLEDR

[4] = target: T2, TFB2M-WT; remark: listed apart in the source
[5] = target: T2, TFB2M-WT; remark: listed apart in the source
[6] = target: T2, TFB2M-WT; remark: listed apart in the source
[7] = target: T3, TFB2M-Δ13 (human, UniProt Q9H5Q4 20-383)
T3 sequence: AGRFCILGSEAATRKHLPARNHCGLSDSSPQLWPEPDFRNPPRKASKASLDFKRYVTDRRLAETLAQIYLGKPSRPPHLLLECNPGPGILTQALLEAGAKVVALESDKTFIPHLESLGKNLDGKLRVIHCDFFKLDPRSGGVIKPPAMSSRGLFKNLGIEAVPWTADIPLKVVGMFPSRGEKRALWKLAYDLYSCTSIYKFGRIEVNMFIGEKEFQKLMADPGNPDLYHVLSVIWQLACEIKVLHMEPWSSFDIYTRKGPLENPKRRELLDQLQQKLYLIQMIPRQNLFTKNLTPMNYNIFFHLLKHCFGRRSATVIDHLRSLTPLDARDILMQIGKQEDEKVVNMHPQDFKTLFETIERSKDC

[8] = target: T4, TFB2M-Δ3 (human, UniProt Q9H5Q4 20-393)
T4 sequence: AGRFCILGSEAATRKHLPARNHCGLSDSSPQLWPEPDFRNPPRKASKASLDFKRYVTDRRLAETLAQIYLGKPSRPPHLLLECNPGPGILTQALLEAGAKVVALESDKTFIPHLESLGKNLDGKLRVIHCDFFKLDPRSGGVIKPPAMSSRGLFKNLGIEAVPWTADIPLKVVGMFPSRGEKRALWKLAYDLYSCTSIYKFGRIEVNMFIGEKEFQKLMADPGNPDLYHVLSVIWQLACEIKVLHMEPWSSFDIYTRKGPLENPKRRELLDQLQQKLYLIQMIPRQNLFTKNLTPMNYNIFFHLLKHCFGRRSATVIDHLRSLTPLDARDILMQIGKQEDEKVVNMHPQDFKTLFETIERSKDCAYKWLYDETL

In the case of ATATAAGTAATA (ssDNA) [15S NT], the Kd [1] is reported as 51 ± 2.8 nM, the Kd [2] is reported as roughly 870 nM and the Kd [3] is reported as 130 nM.

B1: LSP duplex (dsDNA)
DNA 1: TACCGCCAAAAG
DNA 2: CTTTTGGCGGTA
In the case of B1, the binding signal [4] is reported as ~3 fold higher affinity than LSP NT.

TTTTTTTTTTTT (ssDNA) [dT12]: binds [5].

In the case of TACCGCCAAAAG (ssDNA) [LSP NT], the Kd [6] is reported as 169 ± 18 nM, the Kd [7] is reported as 46 ± 5.2 nM and the Kd [8] is reported as 92 ± 3.3 nM.
